Earlier results on one substance are cited in publication PMC4421034.

This series deals with Calmodulin (UniProt P0DP23).

Regarding MLCK (from UniProt Q15746), the Kd was 1 nM.
